Experimental findings from article PMC7138820, “Acetylation of histone H3K27 signals the transcriptional elongation for estrogen receptor alpha” (Communications Biology, 2020) are described below.

This series concerns the molecule itself. The series is described as follows: crystal structure; AFF4 900–1163, sitting-drop vapor diffusion at 16 °C, 2.2 M NaH2PO4, 0.4 M K2HPO4, 0.1 M MES pH 6.6; SAD phasing; 2.2 Å.

B1: AFF4 fragment encompassing residues 900–1163 (crystallised) (domain or fragment, human, UniProt Q9UHB7 900-1163, looked up)
chain: KPRRTKLVFDDRNYSADHYLQEAKKLKHNADALSDRFEKAVYYLDAVVSFIECGNALEKNAQESKSPFPMYSETVDLIKYTMKLKNYLAPDATAADKRLTVLCLRCESLLYLRLFKLKKENALKYSKTLTEHLKNSYNNSQAPSPGLGSKAVGMPSPVSPKLSPGNSGNYSSGASSASASGSSVTIPQKIHQMAASYVQVTSNFLYATEIWDQAEQLSKEQKEFFAELDKVMGPLIFNASIMTDLVRYTRQGLHWLRQDAKLIS
notes: A selenomethionyl derivative was made for SAD phasing; also called AFF4 C-terminal dimerization domain; AFF4 homodimerization domain; source: E. coli BL21(DE3) codon-plus RIL, purified (Ni-chelating resin, HiTrap SP, Superdex 75); not shown: His, N-terminal, cleaved; SUMO, N-terminal, cleaved
With B1, the binding result was “binds”.
